Two molecules from US9212226B2, “Amino acid sequences directed against CXCR4 and other GPCRs and compounds comprising the same” (Ablynx N.V., priority 2008, dated 2015) can be followed below.

For the test, the target named is T1, β2-adrenoceptors (Homo sapiens, UniProt P07550).
T1 construct: (or mock for the investigation of endogenously expressed β2 adrenoceptors); endogenous in cells; host or cells: HEK293T cells (mock-transfected)
As to the kind of experiment: CRE/β-galactosidase reporter gene selectivity screen, endogenous β2-adrenoceptors of HEK293T cells. The test is classed as cell-based. As to conditions: Nanobody 2.5 μM, salbutamol 100 nM, no forskolin. Here is the method:
Data are shown as means±S.E.M. (n=2-3).
HEK293T cells were maintained at 37° C. in a humidified 5% CO2, 95% air atmosphere in Dulbecco's modified Eagle's medium (DMEM) containing 2 mM L-glutamine, 50 IU/ml penicillin, 50 μg/ml streptomycin, and 10% (v/v) fetal calf serum. Jurkat cells were cultured in a humidified 5% CO2, 95% air atmosphere in a 1:1 mixture of Dulbecco's modified Eagle's medium (DMEM) and Ham's F12 medium containing 2 mM L-glutamine, 50 IU/ml penicillin, 50 μg/ml streptomycin, and 10% (v/v) fetal calf serum. […] [^125 I]-Labelling— Radiolabeling of Nanobodies with ^125I was performed using the Iodo-gen method (Pierce, Rockford, Ill.) according to the manufacturer's protocol. ^125I-labeled Nanobodies was separated from free iodine (>99%) using a Sephadex G-25 gel filtration column (Amersham Biosciences, Piscataway, N.J.). […] Competition Binding Assays— Membranes from HEK293T cells transiently expressing CXCR3 or CXCR4 were prepared 48 h after transfection as follows. Cells were washed and scraped from the cell culture dishes with ice-cold PBS containing 1 mm EDTA. The scraped cells were pelleted at 1500×g for 10 min at 4° C. […] The total protein was determined using a Bradford assay (Bio-Rad). […] Plates were counted by liquid scintillation. […] The accumulated inositol phosphates were isolated by anion exchange chromatography and counted by liquid scintillation. […]

Entries after “also recorded” stand apart in the source; their conditions may differ.

B1: 238D2: Nanobody (VHH) raised against human CXCR4, SEQ ID NO: 238 (protein)
VHH: EVQLVESGGGLVQTGGSLRLSCAASGFTFSSYAMSWVRQAPGKGLEWVSGIKSSGDSTRYAGSVKGRFTISRDNAKNMLYLQMYSLKPEDTAVYYCAKSRVSRTGLYTYDNRGQGTQVTVSS
modifications: Nanobody, Nanobody constructs or fragments thereof
Take B1: the “effect on activation of endogenous β2-adrenoceptors by salbutamol” value is “do not act as agonists or antagonists; also recorded: did not inhibit”.

B2: 238D4: Nanobody (VHH) raised against human CXCR4, SEQ ID NO: 239 (protein)
VHH: EVQLMESGGGLVQAGGSLRLSCAASGRTFNNYAMGWFRRAPGKEREFVAAITRSGVRSGVSAIYGDSVKDRFTISRDNAKNTLYLQMNSLKPEDTAVYTCAASAIGSGALRRFEYDYSGQGTQVTVSS
modifications: Nanobody, Nanobody constructs or fragments thereof
Take B2: the “effect on activation of endogenous β2-adrenoceptors by salbutamol” value is reported as “do not act as agonists or antagonists; also recorded: did not inhibit”.
